Test results published in patent publication US20190185865A1, “USE OF PROKARYOTIC TRANSCRIPTIONAL ACTIVATORS AS METABOLITE BIOSENSORS IN EUKARYOTIC CELLS” (Danmarks Tekniske Universitet, priority 2016, published 2019).
Read-outs that look alike come from different tables or passages of the source.

What was measured:
[1] = system: 209 bp_CYC1p_T1 promoter; assay: LTTR-mediated activation of GFP expression from 209 bp_CYC1p_T1 reporter promoter in yeast, without ligand; type: cell-based, Saccharomyces cerevisiae; settings: LTTR expressed from strong TDH3 promoter
Procedure: (§1) Events were analyzed using FlowJo software (TreeStar Inc.).
The genetic device developed in this study represents to the best of our knowledge the first example of transplanting a prokaryotic transcriptional activator into a eukaryotic chassis and successfully using it to activate gene expression without the need for modifying the protein beyond codon optimization. […] To test the generality of the biosensor design for onboarding other small-molecule binding transcriptional activators as biosensors in yeast we selected four other candidates from the LTTR family; FdeR from Herbaspirillum seropedicae, PcaQ from Sinorhizobium meliloti, ArgP from Escherichia coli, and MdcR from Klebsiella pneumonia, with co-inducers naringenin, protocatechuic acid (PCA), L-arginine, and malonic acid, respectively. In this proof-of-principle study we selected the four candidates based on a minimal set of information, including knowledge about operator sequences, experimental evidence for ligand-inducible control of target operons, and their mode-of-action within native chassis (ie. activation, FIG. 1). Furthermore all of these metabolites can passively diffuse across the yeast plasma membrane, with the exception of malonic acid, which requires the expression of the dicarboxylic acid transporter MAE1 from Schizosaccharomyces pombe. […]

[2] = system: CYC1 promoter with BenM operator (BenO); settings: BenM from TEF1 promoter
Procedure: Cells grown for 24 h in control (mineral medium, pH 4.5) or inducing medium (mineral medium pH 4.5+1.4 mM CCM, 1.4 mM protocatechuic acid, 10 mM malonic acid, 0.2 mM naringenin, or 50 mM L-arginine) were diluted into PBS to arrest cell growth. Cells were then analyzed by flow cytometry using a Fortessa flow cytometer (Becton Dickinson) with a blue laser (488 nm), for validation of single strains. For each strain 10,000 single-cell events were recorded. Events were analyzed using FlowJo software (TreeStar Inc.). The fluorescence arithmetic mean of the gated cell population was calculated, and the fold-change determined by dividing the mean fluorescence of the induced (ON) state with the mean fluorescence of the control (OFF) state. For flow cytometry for CCM and naringenin producing cells we tested mean fluorescence intensities from 10,000 cells pr. strain following 72 and 48 h, respectively. The data represent the average of three (n=3) biological replicates and error bars correspond to the standard deviation between these measurements.
Initially, BenO was introduced into the 491 bp CYC1 promoter immediately upstream of one of the two TATA boxes—TATA-1β (designated 491 bp_CYC1p_BenO_T1) or TATA-2α (designated 491 bp_CYC1p_BenO_T2), or upstream of both (designated 491 bp_CYC1p_BenO_T1/T2)(FIG. 2a). Outputs from these engineered promoters were compared by flow cytometry to expression from the native CYC1p (491 bp_CYC1p) using GFP as the reporter (FIG. 1a and FIG. 2a).

[3] = system: BenO-containing human cytomegalovirus (CMV) promoter; settings: 24 h, GFP normalized by RFP; p<0.05 (t-test)
Procedure: CHO cells were transfected with a plasmid with the BenO-containing human cytomegalovirus (CMV) promoter controlling the expression of GFP as well as an empty vector (− BenM) or a vector expressing BenM (+ BenM). Total GFP expression was measured after 24 h, and normalized by total RFP expression. Average and standard deviation are based on three biological replicates. *; p<0.05 (t-test).
For testing the reporter promoter design with other promoter backbones AND in another eukaryotes, Chinese hamster ovary cells was transformed using the human cytomegalovirus promoter backbone (CMV) instead of the CYC1 promoter backbone used in yeast.
Just as in the case with the yeast design using CYC1 promoter as a backbone, the present inventors put the binding site (benO) for the prokaryotic transcriptional activator BenM 6 bp upstream of the TATA box the CMV promoter and scored reporter gene activity (GFP fluorescence) in the presence and absence of the transcriptional activator BenM.

[4] = molecular target: T1, BenM (Acinetobacter baylyi, UniProt O68014); assay: Screening 17 yeast strains with BenO at different positions upstream of TATA1 of 209 bp CYC1p; type: cell-based; design: expressed in transfected cells; promoters TDH3p, TEF1p, RNR2p or REV1p; settings: BenM from REV1p, 1.4 mM CCM, 24 h
T1 sequence (O68014 whole entry, looked up): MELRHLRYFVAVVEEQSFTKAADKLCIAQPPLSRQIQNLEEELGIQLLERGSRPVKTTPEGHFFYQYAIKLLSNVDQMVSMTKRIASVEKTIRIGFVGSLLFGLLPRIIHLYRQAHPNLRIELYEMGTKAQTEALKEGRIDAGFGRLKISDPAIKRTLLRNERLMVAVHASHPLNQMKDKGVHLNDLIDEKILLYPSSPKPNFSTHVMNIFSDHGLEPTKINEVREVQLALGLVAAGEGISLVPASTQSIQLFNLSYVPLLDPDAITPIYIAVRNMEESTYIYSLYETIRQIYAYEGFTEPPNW
Procedure: FIG. 14. Screening 17 yeast strains expressing BenM from the REV1p in combination with CYC1p reporter promoter of 209 bp with BenO placed at different positions upstream of TATA1. The fold induction (mean±s.d.) was calculated by dividing mean fluorescence intensity (MFI) in medium with 1.4 mM CCM by the MFI in control medium as measured by flow cytometry after 24 h of growth for three biological replicates.
In addition to this, the present inventors also tested 17 different positions for positioning of the BenM binding site (benO).

[5] = molecular target: T1, BenM; assay: CCM-induced GFP expression in yeast strains combining BenM expression cassettes and CYC1p reporter promoter variants (flow cytometry); type: cell-based, Saccharomyces cerevisiae; design: expressed in transfected cells; host or cells: Saccharomyces cerevisiae CEN.PK113-5A, chromosomal integration; promoters TDH3p, TEF1p, RNR2p or REV1p; settings: 30° C. vs 37° C.
Text: Strains, chemicals and media. Saccharomyces cerevisiae CEN.PK102-5B (MATa ura3-52 his3Δ1 leu2-3/112 MAL2-8^c SUC2), CEN.PK113-5A (MATa, trp1 his3Δ1 leu2-3/112 MAL2-8^c SUC2) and CEN.PK113-7D (wild type, MATa MAL2-8^c SUC2) strains were obtained from Peter Kotter (Johann Wolfgang Goethe-University Frankfurt, Germany). In principal any other yeast strains may be used, such as one obtained from public repository EuroScarf. EasyClone plasmids used in this work are described in Jensen, N. B. et al. EasyClone: method for iterative chromosomal integration of multiple genes in Saccharomyces cerevisiae. FEMS Yeast Res. 14, 238-48 (2014). Escherichia coli strain DH5a was used as a host for cloning and plasmid propagation. The chemicals and Pfu TURBO DNA polymerase were commercially obtained (Sigma-Aldrich and Agilent Technologies Inc., respectively). All acids used were >97% in purity. S. cerevisiae cells were grown at 30° C. in synthetic complete medium as well as drop-out media and agar plates were prepared using pre-mixed drop-out powders (Sigma-Aldrich). Mineral medium was freshly prepared as described previously. For all media containing diacids, 1.4 mM of the individual diacids were dissolved in mineral medium and pH adjusted to 4.5 before sterile filtration. […]
as §1

B1: BenM: CCM-inducible LysR-type transcriptional activator from Acinetobacter sp ADP1, codon-optimized for yeast (protein, UniProt O68014 1-304, looked up)
HTH-type transcriptional …: T1 sequence (O68014 whole entry, looked up)
modifications: codon-optimized for yeast
[1]
  activation of GFP expression compared to yeast cells without expression of an LTTR: 8.1 ×
[2]; 491 bp_CYC1p_BenO_T1/T2, no CCM
  induction of expression compared to promoter activity without co-expression of BenM: 5 fold
[2]; 491 bp_CYC1p_BenO_T1, no CCM
  induction of expression compared to promoter activity without co-expression of BenM: 20 fold
[2]; 491 bp_CYC1p_BenO_T2, no CCM
  reduction in expression upon co-expression of BenM: 30%
[2]; native 491 bp CYC1p
  effect of BenM on expression of native CYC1p without BenO: did not increase expression
[3]
  reporter (GFP) expression in CHO with vs without BenM: activates reporter expression
[4]
  response with BenO at 17 different positions upstream of TATA box: Only position 6 upstream of the TATA box gave a significant response
[5]
  dynamic range in output by temperature: higher dynamic range in output at 30 °C compared to 37 °C
